Source: patent US20250375499A1 (FLAGSHIP PIONEERING INNOVATIONS VII, published 2025)
Where two headings read alike, the source gives them in different places.

T1: TNFR2 ECD-Fc (human, UniProt P20333)
T1 construct: Fc region, C-terminal fusion partner; also called TNFR2 ECD-hFc; Ichor Bio ICH4022
T1 sequence (TNFR2 ECD-Fc fusion chain): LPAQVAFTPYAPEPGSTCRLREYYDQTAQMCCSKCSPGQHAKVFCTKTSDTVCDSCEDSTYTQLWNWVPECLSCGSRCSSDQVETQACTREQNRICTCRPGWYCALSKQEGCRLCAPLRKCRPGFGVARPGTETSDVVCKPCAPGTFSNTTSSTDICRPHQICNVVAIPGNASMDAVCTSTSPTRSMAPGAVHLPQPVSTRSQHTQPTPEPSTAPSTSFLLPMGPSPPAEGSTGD

B1: recombinant human TL1A (Acro Bio TLA-H5244), plate bound (ligand)
chain: LKGQEFAPSHQQVYAPLRADGDKPRAHLTVVRQTPTQHFKNQFPALHWEHELGLAFTKNRMNYTNKFLLIPESGDYFIYSQVTFRGMTSECSEIRQAGRPNKPDSITVVITKVTDSYPEPTQLLMGTKSVCEVGSNWFQPIYLGAMFSLQEGDKLMVNVSDISLVDYTKEDKTFFGAFLL
notes: Bought protein; also called hTL1A; Tumor Necrosis Factor Ligand Superfamily Member 15
B2: DcR3-hFc (Fc fusion)
chain: VAETPTYPWRDAETGERLVCAQCPPGTFVQRPCRRDSPTTCGPCPPRHYTQFWNYLERCRYCNVLCGEREEEARACHATHNRACRCRTGFFAHAGFCLEHASCPPGAGVIAPGTPSQNTQCQPCPPGTFSASSSSSEQCQPHRNCTALGLALNVPGSSSHDTLCTSCTGFPLSTRVPGAEECERAVIDFVAFQDISIKRLQRLLQALEAPEGWGPTPRAGRAALQLKLRRRLTELLGAQDGALLVRLLQALRVARMPGLERSVRERFLPVH
notes: also called Acro Bio TNB-H5255; not shown: The hIgG1 Fc at the C-terminus, and any linker, of the vendor reagent Acro Bio TNB-H5255
B3: recombinant human LIGHT (Acro Bio LIT-H5242) (ligand)
chain: LIQERRSHEVNPAAHLTGANSSLTGSGGPLLWETQLGLAFLRGLSYHDGALVVTKAGYYYIYSKVQLGGVGCPLGLASTITHGLYKRTPRYPEELELLVSQQSPCGRATSSSRVWWDSSFLGGVVHLEAGEKVVVRVLDERLVRLRDGTRSYFGAFMV
notes: Bought protein; also called hLIGHT; Tumor Necrosis Factor Ligand Superfamily Member 14
B4: recombinant human FASL (Acro Bio HAL-H5241) (ligand)
chain: PSPPPEKKELRKVAHLTGKSNSRSMPLEWEDTYGIVLLSGVKYKKGGLVINETGLYFVYSKVYFRGQSCNNLPLSHKVYMRNSKYPQDLVMMEGKMMSYCTTGQMWARSSYLGAVFNLTSADHLYVNVSELSLVNFEESQTFFGLYKL
notes: Bought protein; also called hFASL; FAS Ligand

Experiments:
TNFR2 ECD-Fc [1] = biological target: T1, TNFR2 ECD-Fc; assay: ELISA: plate coated with recombinant human TL1A (2 µg/mL), Fc-tagged protein titrated 3-fold from 10 nM, anti-human Fc HRP, OD 450 nm background subtracted
Description: (§1) Briefly, Maxisorp 384 well plates (Thermo Nunc Cat #P6366-1CS) were coated with 25 μL of 2 μg/mL of recombinant human TNFSF ligands: TNFα (Acro Bio TNA-H5228), TL1A (Acro Bio TLA-H5244), FASL (Acro Bio HAL-H5241), or LIGHT (Acro Bio LIT-H5242) in PBS or were coated with PBS alone overnight at 4° C. The plates were washed 3 times with 0.1% PBS-T and incubated with SuperBlock blocking buffer (Thermo Fisher 37515) for 1 hour at room temperature with shaking at 400 RPM. […] Plates were incubated for 1 hour at room temperature with shaking at 400 RPM. ELISA plates were washed 3 times with 0.1% PBS-T and incubated with an anti-human Fc HRP conjugated secondary antibody (ThermoFisher Scientific Cat #H10307) 1:2000 in 0.1% PBS-T for 1 hour at room temperature with shaking at 400 RPM. The plates were washed 3 times with 0.1% PBS-T and incubated with 20 μL of TMB (ThermoFisher Scientific Cat #34028) per well. The reaction was stopped at 5 minutes by adding 20 μL of Stop Solution (BioFX LSTP-1000-01). […] Blank subtracted ODs were calculated by subtracting the ODs from the blank plate from the readings from each of the ligand plates and data was plotted using PRISM (version 10.0.2).

[2] = biological target: B1; assay: as above
Description: as §1

[3] = biological target: B1; assay: as above; remark: listed apart in the source
Description: as §1

[4] = biological target: B1; assay: as above; remark: listed apart in the source
Description: as §1

[5] = biological target: B1; assay: as above; remark: listed apart in the source
Description: as §1

[6] = biological target: B3; assay: ELISA: plate coated with recombinant human LIGHT (2 µg/mL), Fc-tagged protein titrated 3-fold from 10 nM, anti-human Fc HRP, OD 450 nm background subtracted
Description: as §1

[7] = biological target: B4; assay: ELISA: plate coated with recombinant human FASL (2 µg/mL), Fc-tagged protein titrated 3-fold from 10 nM, anti-human Fc HRP, OD 450 nm background subtracted
Description: as §1

[8] = biological target: B4; assay: as above; remark: listed apart in the source
Description: as §1

[9] = biological target: B4; assay: as above; remark: listed apart in the source
Description: as §1

[10] = biological target: B4; assay: as above; remark: listed apart in the source
Description: as §1

[11] = biological target: B1; assay: ELISA: plate coated with recombinant human TL1A (2 µg/mL), Fc-tagged protein titrated 3-fold from 10 nM, anti-human Fc HRP, OD 450 nm background subtracted; remark: listed apart in the source
Description: as §1

[12] = biological target: B4; assay: ELISA: plate coated with recombinant human FASL (2 µg/mL), Fc-tagged protein titrated 3-fold from 10 nM, anti-human Fc HRP, OD 450 nm background subtracted; remark: listed apart in the source
Description: as §1

[13] = biological target: B3; assay: ELISA: plate coated with recombinant human LIGHT (2 µg/mL), Fc-tagged protein titrated 3-fold from 10 nM, anti-human Fc HRP, OD 450 nm background subtracted; remark: listed apart in the source
Description: as §1

[14] = biological target: B3; assay: as above; remark: listed apart in the source
Description: as §1

[15] = biological target: B3; assay: as above; remark: listed apart in the source
Description: as §1

[16] = biological target: B3; assay: as above; remark: listed apart in the source
Description: as §1

TNFR2 ECD-Fc [17] = biological target: T1, TNFR2 ECD-Fc; assay: as above
Description: as §1

TNFR2 ECD-Fc [18] = biological target: T1, TNFR2 ECD-Fc; assay: ELISA: plate coated with recombinant human FASL (2 µg/mL), Fc-tagged protein titrated 3-fold from 10 nM, anti-human Fc HRP, OD 450 nm background subtracted
Description: as §1

Binder: B1
binding result (TNFR2 ECD-Fc [1]): no binding (tested: 10 nM (LOG[Dose] 1))

Binder: B2
EC50 (read off the curve) [2]: ~0.1 nM
EC50 (read off the curve) [3]: ~0.1 nM
EC50 (read off the curve) [4]: ~0.1 nM
EC50 (read off the curve) [5]: ~0.1 nM
EC50 (read off the curve) [6]: ~0.2 nM
EC50 (read off the curve) [7]: ~0.1 nM
EC50 (read off the curve) [8]: ~0.1 nM
EC50 (read off the curve) [9]: ~0.1 nM
EC50 (read off the curve) [10]: ~0.1 nM
EC50 (read off the curve) [11]: ~0.1 nM
EC50 (read off the curve) [12]: ~0.1 nM
EC50 (read off the curve) [13]: ~0.2 nM
EC50 (read off the curve) [14]: ~0.2 nM
EC50 (read off the curve) [15]: ~0.2 nM
EC50 (read off the curve) [16]: ~0.2 nM

Binder: B3
binding result (TNFR2 ECD-Fc [17]): no binding (tested: 10 nM (LOG[Dose] 1))

Binder: B4
binding result (TNFR2 ECD-Fc [18]): no binding (tested: 10 nM (LOG[Dose] 1))
